Target: Vip3Aa protoxin (proVip3Aa, without Flag tag) (Bacillus thuringiensis)
Experiment: MST; labeled proVip3Aa (333 nM) or labeled actVip3Aa (216 nM) kept constant, GST-PHB2 titrated from 0.2 nM to 7 μM; PBS pH 7.5; Monolith NT.115 Pico

“GST-PHB2 (prohibitin 2 of Spodoptera frugiperda fused to glutathione-S-transferase) (natural protein)” was tested, and the Kd was 45.9 nM.

— publication PMC9037526
